This note sets out measurements from patent publication EP4814010A1 (Shanghai Huaota Biopharmaceutical Co., Ltd., dated 2026).

Numbering of substitutions follows the chain as printed.

Assay [1] has as its target T1, Cynomolgus IL-11, No Tag (Sino Biological Inc., 90925-CNCE) (cynomolgus, UniProt P20808 22-199).
T1 construct: Bought protein; also called monkey IL-11
T1 sequence (looked up): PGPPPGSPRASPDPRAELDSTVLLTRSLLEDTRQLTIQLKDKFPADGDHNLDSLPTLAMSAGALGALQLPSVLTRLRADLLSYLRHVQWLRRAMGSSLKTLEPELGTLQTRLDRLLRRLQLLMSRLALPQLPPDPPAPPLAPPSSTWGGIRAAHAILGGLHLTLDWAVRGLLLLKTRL
The assay can be described thus: SPR (Biacore 8K), cynomolgus IL-11 amine-coupled on CM5, single-cycle kinetics, 1:1 model. In general terms: In SPR one partner is held on a chip, and binding of the other changes the refractive index at the surface.

Assay [2] concerns the target T2, Trypsin inhibitor type 1-S from Glycine max (Glycine max, UniProt P01070 25-205).
T2 sequence (looked up): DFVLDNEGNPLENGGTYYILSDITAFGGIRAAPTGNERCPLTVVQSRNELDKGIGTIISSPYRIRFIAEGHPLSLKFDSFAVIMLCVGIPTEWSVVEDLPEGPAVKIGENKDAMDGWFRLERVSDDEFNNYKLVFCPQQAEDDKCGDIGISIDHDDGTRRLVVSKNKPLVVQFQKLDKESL
The assay is described as follows: SPR (Biacore 8K), trypsin inhibitor amine-coupled on CM5, antibody as analyte.

Assay [3] concerns the target T3, Recombinant Rat Interleukin-11(IL-11), hFc Tag (CusaBio, CSB-MP859561RAd9) (rat, UniProt Q99MF5 22-199).
T3 construct: Bought fusion protein; also called Rat IL-11; not shown: hFc tag
T3 sequence (looked up): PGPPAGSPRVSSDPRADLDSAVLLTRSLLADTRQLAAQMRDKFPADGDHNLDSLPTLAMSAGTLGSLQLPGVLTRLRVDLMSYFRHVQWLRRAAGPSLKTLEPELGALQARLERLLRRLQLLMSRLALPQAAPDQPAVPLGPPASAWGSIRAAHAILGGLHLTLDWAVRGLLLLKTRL
The assay is described as follows: BLI (Octet RH96), biotinylated sample on SA sensor, rat IL-11 as analyte, 1:1 global fit.

Assay [4] addresses T4, Mouse IL-11, No Tag (Sino Biological, 50117-MNCE) (mouse, UniProt P47873 22-199).
T4 construct: Bought protein
T4 sequence (looked up): T3 sequence (looked up) with N50S, F84L, A94G, A137V, V138I
The assay can be described thus: SPR (Biacore T200), antibody captured on Protein A chip, IL-11 as analyte, 1:1 model.

In assay [5] the target is T5, Human IL-11, No Tag (Sino Biological, 12225-HNCE) (human, UniProt P20809 22-199).
T5 construct: Bought protein; also called IL-11 Protein, Human, Recombinant
T5 sequence (looked up): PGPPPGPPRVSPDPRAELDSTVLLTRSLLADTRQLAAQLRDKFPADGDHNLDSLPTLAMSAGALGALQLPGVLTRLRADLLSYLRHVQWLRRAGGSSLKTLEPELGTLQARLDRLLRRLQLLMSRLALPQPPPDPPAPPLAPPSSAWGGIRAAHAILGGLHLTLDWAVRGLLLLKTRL
The assay is described as above.

B1: anti-IL-11 monoclonal heavy chain antibody 700068 (antibody, V domains shown)
VH: QVQLVESGGGLVQPGGSLRLSCAASGSIASIYTMAWYRQAPGKQRELVALSTNRGATDYADFVKGRFTISRDNAENTMYLQMNSLKPEDTAVYYCNGVASSWSTGFVASWGQGTQVTVSS
notes: also called 700068 heavy chain antibody
One may read the Kd as the free concentration of one partner at which half of the binding sites on the other are occupied at equilibrium, for simple one-to-one binding. The koff is the first-order rate constant of dissociation. One may read the kon as a measure of how fast the partners come together. In the case of B1, the Kd in assay [1] amounted to 4.56 nM; in assay [3], 1.17 nM; in assay [4] it was 2.2 nM; in assay [5] it was 1.93 nM. In addition, the koff is 0.00221 s⁻¹ in assay [1], 5.57e-05 s⁻¹ in assay [3], 0.00107 s⁻¹ in assay [4] and 0.00133 s⁻¹ in assay [5]. Further, the kon in assay [1] is 485000 M⁻¹ s⁻¹; in assay [3] it was 47500 M⁻¹ s⁻¹; in assay [4], 487000 M⁻¹ s⁻¹; in assay [5] it was 689000 M⁻¹ s⁻¹. For the same molecule, in assay [2], the binding result is “no binding”.
